± gives the standard deviation of the averaged measurements.
Each sequence was assayed on Saccharomyces cerevisiae (assay: protein stability index of tFT-peptide fusion (C-terminal peptide) (PSI (0-1 scale)); higher = more stable (slower turnover)). Settings: genetic background: wild type; temperature: 30 C.
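Note: PSI is a weighted mean of sequencing reads over stability bins, variants kept only with over 10 reads, mCherry proximal and sfGFP distal, peptide attached via GGGS linker.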

Sequence | protein stability index
NLRRPLYYNGSV | 0.757 ± 0.076
NNNKKKDDNIDM | 0.618 ± 0.079
NPMSLTTKRKTE | 0.651 ± 0.11
NPQRGLNAQLFG | 0.656 ± 0.045
NPQTVNSPIFPT | 0.752 ± 0.018
NPTDIAINTGIS | 0.742 ± 0.0081
NQAQTQQMKTEW | 0.608 ± 0.05
NQAWYFVRLAGD | 0.776 ± 0.022
NQCRSQVRQNGY | 0.762 ± 0.15
NQEPRVSFCRDS | 0.716 ± 0.044
NQRCLRGKIVRC | 0.633 ± 0.03
NRDSRTLGSTVG | 0.6744 ± 0.0011
NRGPPNMRQITP | 0.712 ± 0.085
NRKGNKHEKKYE | 0.691 ± 0.0039
NRNIRKKKIKNK | 0.668 ± 0.054
NRRERQQREVYN | 0.741 ± 0.21
NRRGGTLLATLF | 0.659 ± 0.017
NRSERIKDNRGK | 0.723 ± 0.025
NRSFIITRSVLS | 0.683 ± 0.029
NSALQELNKAVG | 0.625 ± 0.029
NSESVRLGLGNE | 0.705 ± 0.054
NSGSQSQDKQER | 0.658 ± 0.013
NSPKTKKTNFKE | 0.665 ± 0.017
NSRCSIQGAPLL | 0.726 ± 0.041
NSSPRFPTPDNP | 0.6618 ± 0.00081
NSVLRESSGLQL | 0.689 ± 0.044

Sequence | protein stability index
NSVWPGYPCTHP | 0.639 ± 0.03
NTGEHVVPCKGT | 0.659 ± 0.0067
NTGGVTRVIGCV | 0.704 ± 0.029
NTGNGYDEKTME | 0.7622 ± 0.0014
NTHPPPLPTTKH | 0.7393 ± 0.007
NTNEKKRQRKKK | 0.6389 ± 0.0037
NTSKEDENKARI | 0.707 ± 0.019
NVIGSGLFVGWD | 0.795 ± 0.087
NVLIISEQNHEP | 0.748 ± 0.047
NVYRYSWYCSEF | 0.728 ± 0.088
NWLYPYSLRRRG | 0.663 ± 0.13
PAAPPLGFTRTD | 0.7 ± 0.0095
PAELGAGYVMGG | 0.699 ± 0.022
PAGSRGRHSRER | 0.712 ± 0.061
PAGVPPAVCRDL | 0.609 ± 0.0092
PAHSLPPPPPPP | 0.702 ± 0.041
PALPHQPLPRPQ | 0.797 ± 0.023
PALPPLPPPPPA | 0.71 ± 0.016
PALPPPVLLRLP | 0.557 ± 0.062
PALPTPILSSPP | 0.709 ± 0.012
PAPLPFPPPSLP | 0.701 ± 0.032
PAPLPPPAPSST | 0.69 ± 0.02
PAPLRSPLVLPS | 0.721 ± 0.039
PAPPPPPPGTAA | 0.641 ± 0.061
PAPPPQSPAPYR | 0.704 ± 0.049
PAPPRSLPPSSP | 0.6536 ± 0.0058

Sequence | protein stability index
PARPPPPRPPPP | 0.712 ± 0.03
PASLSPAVPESS | 0.719 ± 0.044
PASPCTPLPFSP | 0.686 ± 0.04
PASPTLRPYWDP | 0.645 ± 0.068
PASSAPDSSTAH | 0.7406 ± 0.0052
PAVIVAPYSQGE | 0.701 ± 0.025
PAVSLPPPAPAS | 0.721 ± 0.051
PAYACLCGFGIA | 0.62754 ± 0.00056
PCGLRLAFRLSL | 0.619 ± 0.038
PCHPGASLRRRL | 0.861 ± 0.067
PCPHPLRPALIL | 0.704 ± 0.014
PCPLPVPCCLRP | 0.636 ± 0.016
PCPRIPSSRRLA | 0.574 ± 0.044
PCRANRRLVTSP | 0.628 ± 0.056
PCVISRPPRLFP | 0.752 ± 0.06
PDGGPGLLRFVL | 0.64 ± 0.015
PDLEMQMTRTRG | 0.70081 ± 0.00044
PDLLHLPAHRHA | 0.6722 ± 0.0055
PDLPHYHPPPPL | 0.727 ± 0.011
PDRPVISLLLPS | 0.646 ± 0.079
PEGCQDGASPAE | 0.759 ± 0.021
PEGLKKKKEKRI | 0.706 ± 0.049
PELLGVARDGFR | 0.65 ± 0.0097
PESTPRVHSNDY | 0.691 ± 0.027
PFFSFLYPRFYF | 0.682 ± 0.0096
PFFVRNTFTCSL | 0.735 ± 0.11

Sequence | protein stability index
PFLRPPSPPSSP | 0.66 ± 0.013
PFPFSLPSPPLP | 0.551 ± 0.14
PFPLPPLHSSHR | 0.734 ± 0.03
PFPPRPPSDRIR | 0.659 ± 0.088
PFPPTPVRRVPL | 0.715 ± 0.025
PFPRGCCRLLSP | 0.707 ± 0.012
PFRPPPRFPPPV | 0.815 ± 0.042
PFSAPRRLPRTV | 0.697 ± 0.0089
PFSGLPVRCELC | 0.672 ± 0.048
PFSLPAFLLPTL | 0.712 ± 0.053
PFSLPPPRPPRP | 0.684 ± 0.045
PFSNFFFRLSFS | 0.665 ± 0.028
PFSPHPGPPPPP | 0.7659 ± 0.002
PFSTWLSSPSLP | 0.774 ± 0.07
PFVGSSPFPLCL | 0.645 ± 0.042
PFVPPPHRDDSP | 0.746 ± 0.082
PGATSAIPPPFT | 0.738 ± 0.03
PGGLSCPSPPTI | 0.676 ± 0.057
PGLPLPPFPFFS | 0.762 ± 0.047
PGNFLSVSMSIC | 0.649 ± 0.051
PGPLVFPLPLAC | 0.578 ± 0.036
PGPSPSPPLPRF | 0.748 ± 0.014
PGPSPVLPPPPP | 0.633 ± 0.038
PGRFVVGAGRED | 0.686 ± 0.024
PGSTCWLFEFLS | 0.711 ± 0.07
PGTATRAPQLIP | 0.727 ± 0.033

Sequence | protein stability index
PHAPHPPALTPP | 0.623 ± 0.072
PHAPSHLPSSLP | 0.712 ± 0.025
PHDPHNTATNQG | 0.721 ± 0.016
PHDRSPPHGPKL | 0.742 ± 0.1
PHLDSPGPLAII | 0.682 ± 0.023
PHLPPSLFPSPP | 0.659 ± 0.073
PHLRTRRPPLLH | 0.694 ± 0.01
PHLTTPATPVLL | 0.716 ± 0.023
PHPPHPPPPPPS | 0.689 ± 0.036
PHPPPSPGPSPP | 0.707 ± 0.11
PHPPRPPRAPPP | 0.634 ± 0.024
PHPPRPSTPPPT | 0.637 ± 0.059
PHPRSVSPPPPS | 0.624 ± 0.075
PHPSAAPPPNPP | 0.759 ± 0.062
PHPSLPGPFPHP | 0.7049 ± 0.0045
PHPWTSPPAPPP | 0.698 ± 0.022
PHRLLTQITTGT | 0.746 ± 0.12
PIAASAPPLCPR | 0.692 ± 0.014
PIALPSPSSPIF | 0.669 ± 0.015
PIFQGTCPSTFV | 0.675 ± 0.02
PIFVCPFPGSLV | 0.683 ± 0.065
PIGLCLYNSPRF | 0.662 ± 0.035
PILPPLVPSSRL | 0.769 ± 0.07
PIMESARGFLCV | 0.658 ± 0.052
PINIERNKRIKR | 0.733 ± 0.021
PIPAPFFLAPPL | 0.731 ± 0.06

Sequence | protein stability index
PIPPPPPLRPSS | 0.69 ± 0.011
PIPTQYPPPKAP | 0.675 ± 0.069
PKKDNIQLQKPA | 0.694 ± 0.028
PKPPPSSGRCPA | 0.633 ± 0.011
PKRHLTFLPRGV | 0.662 ± 0.036
PKWSVTPVAANL | 0.695 ± 0.048
PLALPLPRLVLP | 0.643 ± 0.026
PLCLCCPIGIIS | 0.516 ± 0.008
PLFAPLCLNSNR | 0.666 ± 0.016
PLFASLHPSGPL | 0.699 ± 0.032
PLGDLGPRLRKP | 0.669 ± 0.039
PLGPSTQHPLSI | 0.687 ± 0.025
PLHMWFSLLKPS | 0.716 ± 0.074
PLHNPPTRRTTP | 0.67 ± 0.056
PLHPQPAATPRS | 0.713 ± 0.023
PLHPSRPPPSSP | 0.708 ± 0.033
PLIYFLASNSRF | 0.713 ± 0.069
PLLDEQCLGIDS | 0.658 ± 0.015
PLLPFRYTRSGT | 0.68 ± 0.07
PLLPLAASPPPP | 0.683 ± 0.051
PLLPPLPPPLPP | 0.692 ± 0.1
PLLPSPAPLHPP | 0.583 ± 0.044
PLLRPRLRPFPR | 0.704 ± 0.049
PLNQSYFVFSGN | 0.724 ± 0.019
PLPIHSHPPPVP | 0.615 ± 0.0068
PLPIPHASPTLA | 0.641 ± 0.025

Sequence | protein stability index
PLPIPSPLRSSF | 0.689 ± 0.053
PLPLPPSVTSLL | 0.729 ± 0.044
PLPPILPAPPPT | 0.704 ± 0.028
PLPPLLPPSPPP | 0.767 ± 0.0085
PLPPLPPPPPAA | 0.682 ± 0.038
PLPPLPPPTAPP | 0.693 ± 0.029
PLPPPPLLALCS | 0.531 ± 0.02
PLPPPPPPPLPP | 0.737 ± 0.011
PLPPPPRPPAPL | 0.688 ± 0.0072
PLPPPPRPPPNP | 0.665 ± 0.01
PLPPPPRPRPPL | 0.721 ± 0.04
PLPPPPTPPVLP | 0.691 ± 0.016
PLPPPRPSPGLL | 0.67 ± 0.1
PLPPPSGLLSRL | 0.902 ± 0.047
PLPPSHPPTGPP | 0.661 ± 0.012
PLPPTFPSPLPP | 0.665 ± 0.008
PLPPTPPPLAPP | 0.644 ± 0.086
PLPRHSSPLPHI | 0.684 ± 0.0089
PLPRPPSPPYPP | 0.65 ± 0.035
PLPRPRHHEPNS | 0.75 ± 0.044
PLPRTPTLPTPE | 0.635 ± 0.036
PLPSPPAPNSPQ | 0.6793 ± 0.0053
PLPSSSTRSTSP | 0.714 ± 0.013
PLPYPPTSPTPR | 0.678 ± 0.0078
PLPYSPPLHVYP | 0.691 ± 0.023
PLRAHLYRPSVP | 0.69 ± 0.03

Sequence | protein stability index
PLRALLPTRCNL | 0.732 ± 0.067
PLRGRRPIFPAP | 0.724 ± 0.088
PLRPPSSPLWHT | 0.6937 ± 0.0037
PLRRSTSPLILL | 0.648 ± 0.033
PLRSLNHSGRPP | 0.641 ± 0.06
PLRSLPRPLSST | 0.65913 ± 0.00011
PLRSPSYPPPPP | 0.6814 ± 0.00091
PLRTLFGDHLLV | 0.6826 ± 0.002
PLSLRLCYLPWY | 0.701 ± 0.0086
PLSPLVPVRTRP | 0.682 ± 0.072
PLSPPLPLPLPL | 0.75 ± 0.037
PLSPPPAPLPSS | 0.747 ± 0.071
PLSPPPPGPPAS | 0.6037 ± 0.0024
PLSPPPPPPLPA | 0.71 ± 0.011
PLSPPPPTLPLP | 0.714 ± 0.036
PLSPPPYPPRPL | 0.721 ± 0.024
PLSPSPPPAFPA | 0.794 ± 0.039
PLSWVLFSFFHA | 0.697 ± 0.062
PLTPPLPPSPPP | 0.711 ± 0.026
PLTTIPSPNSLE | 0.666 ± 0.032
